According to patent US20190225694A1 (ZAKLADY FARMACEUTYCZNE POLPHARMA, published 2019):

Key:
α4β7 integrin = α4β7 integrin (UniProt P13612 34-970; P26010 20-723); experiment: competitive ELISA, coated α4β7 integrin, Fc-tagged MadCAM-1 as competitor, bound antibody detected with anti-human IgG-POD, 4PL fit
Experimental: Constant amount of the coated α4β7 integrin is incubated with serial dilutions of natalizumab in the presence of Fc-tagged MadCAM-1 receptor. natalizumab and MadCAM-1 receptor now compete for binding to solid-phase associated α4β7 integrin. The higher the natalizumab concentration the more MadCAM-1 is inhibited from binding to α4β7 integrin. The lowest signal result is observed when no natalizumab is present. Bound natalizumab is subsequently detected with a POD-conjugated anti-human IgG antibody and a TMB-substrate reaction at the end of the assay.
Data are analyzed with 4PL fitting model. Final result is expressed as a Relative Potency (REP) of tested sample in relation to reference standard. The method variability was determined at the level of 8% coefficient variation (CV) of intermediate precision within the qualification exercise. Additionally accuracy, linearity and specificity were tested.

[1] = biological target: T1, integrin α4β1 (coated, direct ELISA) (UniProt P13612 34-970; P05556 21-728, limits assumed); experiment: direct ELISA, coated integrin α4β1, anti-human IgG-HRP detection, 4PL fit
T1 construct: Coated on the plate in the direct ELISA; also called α4β1 integrin; VLA-4
Experimental: The principle of this method is to incubate a coated constant amount of integrin α4β1 with serially diluted natalizumab samples. The amount of bound natalizumab is subsequently determined by a mouse, monoclonal anti-human IgG antibody, which is conjugated to horseradish peroxidase (HRP). HRP converts the chromogenic substrate TMB (3,3′,5,5′-tetramethylbenzidine) into a colored dye. The color reaction is measured spectrophotometrically at wavelength 450 nm.
Data are analyzed applying 4 Parameter Logistic nonlinear regression model (4PL), which is commonly used for curve-fitting analysis in bioassays or immunoassays such as ELISAs or dose-response curves. Final result is expressed as a Relative Potency (REP) of tested sample in relation to interim reference standard established at Polpharma site. The method variability was determined at the level of 7% coefficient variation (CV) of intermediate precision within the qualification exercise.

HIS-tagged α4β1 integrin = HIS-tagged α4β1 integrin (UniProt P13612 34-970; P05556 21-728, limits assumed); experiment: competitive ELISA, coated VCAM-1 as competitor, HIS-tagged α4β1 integrin in solution, 4PL fit
Experimental: Constant amount of the coated VCAM-1 protein is incubated with serial dilutions of natalizumab in the presence of HIS-tagged α4β1 integrin. Solid-phase associated VCAM-1 and soluble natalizumab now compete for binding to α4β1 integrin. The higher the natalizumab concentration the more α4β1 Integrin is inhibited from binding to VCAM-1. The highest signal result is observed when no natalizumab is present. Bound HIS-tagged α4β1 integrin is subsequently detected with a biotinylated anti-HIS-tag antibody, POD-conjugated Streptavidin and a TMB-substrate reaction at the end of the assay.
Data are analyzed with 4PL fitting model. Final result is expressed as a Relative Potency (REP) of tested sample in relation to reference standard. The method variability was determined at the level of 7% coefficient variation (CV) of intermediate precision within the qualification exercise. Additionally accuracy, linearity and specificity were tested.

| Relative Potency (REP), average (α4β7 integrin) | Relative Potency (REP), max (α4β7 integrin) | Relative Potency (REP), min (α4β7 integrin) | Relative Potency (REP), average [1] | Relative Potency (REP), max [1] | Relative Potency (REP), min [1] | Relative Potency (REP), average (HIS-tagged α4β1 integrin) | Relative Potency (REP), max (HIS-tagged α4β1 integrin) | Relative Potency (REP), min (HIS-tagged α4β1 integrin) | Binder |
| --- | --- | --- | --- | --- | --- | --- | --- | --- | --- |
| 0.81 relative to reference standard | 0.857 relative to reference standard | 0.738 relative to reference standard | 0.769 relative to interim reference standard | 0.847 relative to interim reference standard | 0.723 relative to interim reference standard | 0.829 relative to reference standard | 0.842 relative to reference standard | 0.805 relative to reference standard | natalizumab biosimilar antibody produced by CHO DG44 Clone 1 (antibody, human IgG4, kappa, V domains shown, Tested product from the clone selection step; full-length IgG4) VH: QVQLVQSGAEVKKPGASVKVSCKASGFNIKDTYIHWVRQAPGQRLEWMGRIDPANGYTKYDPKFQGRVTITADTSASTAYMELSSLRSEDTAVYYCAREGYYGNYGVYAMDYWGQGTLVTVSS VL: DIQMTQSPSSLSASVGDRVTITCKTSQDINKYMAWYQQTPGKAPRLLIHYTSALQPGIPSRFSGSGSGRDYTFTISSLQPEDIATYYCLQYDNLWTFGQGTKVEIKR |
| 0.998 relative to reference standard | 1.08 relative to reference standard | 0.922 relative to reference standard |  |  |  | 1.02 relative to reference standard | 1.15 relative to reference standard | 0.935 relative to reference standard | natalizumab reference product (9 batches) (antibody, human IgG4, kappa, V domains shown) VH: QVQLVQSGAEVKKPGASVKVSCKASGFNIKDTYIHWVRQAPGQRLEWMGRIDPANGYTKYDPKFQGRVTITADTSASTAYMELSSLRSEDTAVYYCAREGYYGNYGVYAMDYWGQGTLVTVSS VL: DIQMTQSPSSLSASVGDRVTITCKTSQDINKYMAWYQQTPGKAPRLLIHYTSALQPGIPSRFSGSGSGRDYTFTISSLQPEDIATYYCLQYDNLWTFGQGTKVEIKR |
| 0.831 relative to reference standard | 0.858 relative to reference standard | 0.79 relative to reference standard | 0.679 relative to interim reference standard | 0.732 relative to interim reference standard | 0.611 relative to interim reference standard | 0.903 relative to reference standard | 0.93 relative to reference standard | 0.85 relative to reference standard | natalizumab biosimilar antibody produced by CHO DG44 Clone 2 (antibody, human IgG4, kappa, V domains shown, Tested product from the clone selection step; full-length IgG4) VH: QVQLVQSGAEVKKPGASVKVSCKASGFNIKDTYIHWVRQAPGQRLEWMGRIDPANGYTKYDPKFQGRVTITADTSASTAYMELSSLRSEDTAVYYCAREGYYGNYGVYAMDYWGQGTLVTVSS VL: DIQMTQSPSSLSASVGDRVTITCKTSQDINKYMAWYQQTPGKAPRLLIHYTSALQPGIPSRFSGSGSGRDYTFTISSLQPEDIATYYCLQYDNLWTFGQGTKVEIKR |
